{
  "source": "the supplement of paper PMC12042874",
  "note": "± gives the uncertainty stated by the source.",
  "data": [
    {"assay": "amyloid nucleation score (Sup35N fusion, yeast selection) (log enrichment); library NNK2; higher = more nucleation; inactive = no reads after selection", "in_short": "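The nucleation score is a DiMSum log enrichment of output over input reads, centred on the mode score of non-aggregating sequences. Sequences under 100 input reads were excluded, and reads came from Illumina sequencing of plasmid inserts. Psi-negative yeast expressing Sup35N fused to peptides of 20 random codons were induced with 100 μM copper sulfate for 24 hours and grown 7 days at 30°C on medium lacking adenine and uracil. Random libraries had three technical output replicates.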", "values": [
      {"substance": "RYMGVMVYKAPPRRTWCGKV", "amyloid nucleation score": "-0.237 ± 0.41"},
      {"substance": "RYNILSSSATV", "amyloid nucleation score": "inactive"},
      {"substance": "RYNLKQCL", "amyloid nucleation score": "inactive"},
      {"substance": "RYPFFEMVRSTMQSMIENQ", "amyloid nucleation score": "0.612 ± 0.3"},
      {"substance": "RYRALPTMPLEMSVQGDLRV", "amyloid nucleation score": "-0.319 ± 0.25"},
      {"substance": "RYRSFICALLRGFTDLACL", "amyloid nucleation score": "-1.53 ± 1.1"},
      {"substance": "RYRWDLSPRNTTTN", "amyloid nucleation score": "3.22 ± 0.072"},
      {"substance": "RYSFD", "amyloid nucleation score": "-0.588 ± 1.1"},
      {"substance": "RYWKFA", "amyloid nucleation score": "0.744 ± 0.74"},
      {"substance": "SAACQCLDFWCSGLGQSQGL", "amyloid nucleation score": "6.59 ± 0.075"},
      {"substance": "SACDGPGTQSRIVGWGHSCV", "amyloid nucleation score": "1.33 ± 0.27"},
      {"substance": "SAFDKASERLCSESVYKGKN", "amyloid nucleation score": "1.7 ± 0.099"},
      {"substance": "SAFSFAIVIYFRLCKVGLVD", "amyloid nucleation score": "-0.92 ± 1.1"},
      {"substance": "SAGGVSPFP", "amyloid nucleation score": "-0.659 ± 0.63"},
      {"substance": "SAKNMFDMYNCLDTLVVSWD", "amyloid nucleation score": "-0.095 ± 0.46"},
      {"substance": "SAKSNGVQ", "amyloid nucleation score": "1.16 ± 0.32"},
      {"substance": "SALRSSEEFSAFCVE", "amyloid nucleation score": "-0.084 ± 0.74"},
      {"substance": "SALRVSEGMLSSGEIAHLVY", "amyloid nucleation score": "-0.052 ± 0.23"},
      {"substance": "SANSRVGGLGNL", "amyloid nucleation score": "0.717 ± 0.39"},
      {"substance": "SARRGCYWEAYCATCLKGWM", "amyloid nucleation score": "-1.03 ± 0.76"},
      {"substance": "SARRRINGNPCEEMNQRLAV", "amyloid nucleation score": "1.08 ± 0.53"},
      {"substance": "SASFRGG", "amyloid nucleation score": "-0.935 ± 0.48"},
      {"substance": "SAVIFAESTCV", "amyloid nucleation score": "-0.512 ± 0.79"},
      {"substance": "SAVSMMLYWGSLNRVDYCWS", "amyloid nucleation score": "0.877 ± 0.32"},
      {"substance": "SAVSPVSVADR", "amyloid nucleation score": "-0.656 ± 1.1"},
      {"substance": "SAYGVVSSWMR", "amyloid nucleation score": "-0.266 ± 0.55"},
      {"substance": "SCDLYDTKSESFWLPSNMGS", "amyloid nucleation score": "0.73 ± 0.44"},
      {"substance": "SCDVMIRYLSLGTLSYVRAV", "amyloid nucleation score": "-0.032 ± 1.1"},
      {"substance": "SCIYRE", "amyloid nucleation score": "-0.097 ± 0.21"},
      {"substance": "SCLLYCYSNSWFFIFNQR", "amyloid nucleation score": "-0.979 ± 1"},
      {"substance": "SCMCMEICINWNFRCIDGRG", "amyloid nucleation score": "6.66 ± 0.078"},
      {"substance": "SCNNLGDLWLSIILVKSET", "amyloid nucleation score": "0.044 ± 1.1"},
      {"substance": "SCQLQDKLMLS", "amyloid nucleation score": "0.999 ± 0.16"},
      {"substance": "SCRIFFE", "amyloid nucleation score": "-0.062 ± 0.65"},
      {"substance": "SCRVLIGV", "amyloid nucleation score": "0.878 ± 0.46"},
      {"substance": "SCSRLVFRRVVSGIISLCME", "amyloid nucleation score": "-0.901 ± 0.79"},
      {"substance": "SCSSLYT", "amyloid nucleation score": "1.11 ± 0.43"},
      {"substance": "SCSVTSAFRWTRCGLLRGIW", "amyloid nucleation score": "-0.048 ± 0.3"},
      {"substance": "SCSYRFSRSDDNCKTRFIAF", "amyloid nucleation score": "-0.582 ± 1.1"},
      {"substance": "SCVMGYKEVAFL", "amyloid nucleation score": "-0.081 ± 0.34"},
      {"substance": "SDFIAGVKLSRNFDGRG", "amyloid nucleation score": "-0.097 ± 1.1"},
      {"substance": "SDFMTKYHHL", "amyloid nucleation score": "3.33 ± 0.058"},
      {"substance": "SDFVEKLLWFSY", "amyloid nucleation score": "0.039 ± 0.77"},
      {"substance": "SDGSGNGEWSEMQVLWTRSN", "amyloid nucleation score": "1.07 ± 0.33"},
      {"substance": "SDIFRK", "amyloid nucleation score": "-1.27 ± 0.62"},
      {"substance": "SDLANTLEPELQAFVIQ", "amyloid nucleation score": "-0.029 ± 0.61"},
      {"substance": "SDNRENFSRTFCFSVVGNWK", "amyloid nucleation score": "inactive"},
      {"substance": "SDNSM", "amyloid nucleation score": "-0.235 ± 0.32"},
      {"substance": "SDRGYSE", "amyloid nucleation score": "3.2 ± 0.14"},
      {"substance": "SECCLVELINLTDGGMRGSA", "amyloid nucleation score": "0.5 ± 0.42"},
      {"substance": "SECENAFVGVPPWRTKILWS", "amyloid nucleation score": "2.19 ± 0.12"},
      {"substance": "SEFGSNEYRDGLGVYYGST", "amyloid nucleation score": "-0.542 ± 0.33"},
      {"substance": "SEFRHGSYYSGVTEVRFWVQ", "amyloid nucleation score": "2.26 ± 0.11"},
      {"substance": "SEKGKEYSSVDMGQNGNTNM", "amyloid nucleation score": "-0.829 ± 0.63"},
      {"substance": "SELLGLSIKAIYICCMSQME", "amyloid nucleation score": "-0.9 ± 0.61"},
      {"substance": "SESWSSCIMA", "amyloid nucleation score": "1.33 ± 0.39"},
      {"substance": "SESYVLYNIFGFSVKLDEHG", "amyloid nucleation score": "-1 ± 1"},
      {"substance": "SETLFEYS", "amyloid nucleation score": "-1.55 ± 0.55"},
      {"substance": "SFASRYFSNKGGLHSDMCAS", "amyloid nucleation score": "inactive"},
      {"substance": "SFAYVMCLSG", "amyloid nucleation score": "-0.635 ± 0.55"},
      {"substance": "SFCCFFRSSLVFNFLVYISG", "amyloid nucleation score": "0.081 ± 1.1"},
      {"substance": "SFDVWAALNENLPHISYFDQ", "amyloid nucleation score": "-0.14 ± 1.1"},
      {"substance": "SFFNSWTHFGNCWFL", "amyloid nucleation score": "3.85 ± 0.065"},
      {"substance": "SFFQSVMPYHLVYLGQILLN", "amyloid nucleation score": "-1.25 ± 0.34"},
      {"substance": "SFFWPPHLKRVLFLQLRTIC", "amyloid nucleation score": "0.777 ± 0.44"},
      {"substance": "SFGTFVSGTALLGSMFCTTG", "amyloid nucleation score": "0.285 ± 0.29"},
      {"substance": "SFGVGEFDVNYLMERRF", "amyloid nucleation score": "-0.066 ± 0.4"},
      {"substance": "SFGWDYVDPQLKNTCTHCRV", "amyloid nucleation score": "-0.795 ± 0.48"},
      {"substance": "SFIPRLYLV", "amyloid nucleation score": "-0.016 ± 0.53"},
      {"substance": "SFKISDYDECSCFKFYMAPI", "amyloid nucleation score": "7.08 ± 0.082"},
      {"substance": "SFKLGSHVSDKKIGMDLCFT", "amyloid nucleation score": "-0.361 ± 0.4"},
      {"substance": "SFLFVFSRTGFDCLVDFCFE", "amyloid nucleation score": "-1.76 ± 0.75"},
      {"substance": "SFNTLCLRKC", "amyloid nucleation score": "-0.65 ± 0.37"},
      {"substance": "SFNWNC", "amyloid nucleation score": "-1.15 ± 0.76"},
      {"substance": "SFRLQIRV", "amyloid nucleation score": "-0.417 ± 0.23"},
      {"substance": "SFRMKAALRRGNPNRAMDLT", "amyloid nucleation score": "2.33 ± 0.098"},
      {"substance": "SFSVLLADGQYRCYLLDSVL", "amyloid nucleation score": "-0.516 ± 0.48"},
      {"substance": "SFVSTVFMGRVFMQHAISTR", "amyloid nucleation score": "-1.08 ± 0.55"},
      {"substance": "SFYWKMVW", "amyloid nucleation score": "0.512 ± 0.33"},
      {"substance": "SGFLDLPVYPVYNHNRTKMI", "amyloid nucleation score": "0.267 ± 0.57"},
      {"substance": "SGFMLKWCKY", "amyloid nucleation score": "0.874 ± 0.55"},
      {"substance": "SGFSVTNCGN", "amyloid nucleation score": "-0.155 ± 0.26"},
      {"substance": "SGFTVEESWTLLCRIVSREG", "amyloid nucleation score": "1.22 ± 0.34"},
      {"substance": "SGIGY", "amyloid nucleation score": "0.561 ± 0.62"},
      {"substance": "SGLRYFMFIISNSI", "amyloid nucleation score": "0.58 ± 0.22"},
      {"substance": "SGNSENSTLVKNYFSTLSLS", "amyloid nucleation score": "-0.124 ± 0.5"},
      {"substance": "SGNVYFLQNRFSVAKQNYTL", "amyloid nucleation score": "-0.448 ± 0.79"},
      {"substance": "SGPIEIRPCIPRKLVCSYRH", "amyloid nucleation score": "1.01 ± 0.53"}
    ]}
  ]
}
